# Values quoted from earlier work as cited in patent US20170290929A1, “GRP78 TARGETED CONJUGATES” (University of Iowa Research Foundation, priority 2014, published 2017).
# Ends that are not written are not given here.
# Target: GRP78 (Homo sapiens, UniProt P11021)
# Settings: cell free binding assays
# GRP78, sequence (P11021 19-654, species assumed): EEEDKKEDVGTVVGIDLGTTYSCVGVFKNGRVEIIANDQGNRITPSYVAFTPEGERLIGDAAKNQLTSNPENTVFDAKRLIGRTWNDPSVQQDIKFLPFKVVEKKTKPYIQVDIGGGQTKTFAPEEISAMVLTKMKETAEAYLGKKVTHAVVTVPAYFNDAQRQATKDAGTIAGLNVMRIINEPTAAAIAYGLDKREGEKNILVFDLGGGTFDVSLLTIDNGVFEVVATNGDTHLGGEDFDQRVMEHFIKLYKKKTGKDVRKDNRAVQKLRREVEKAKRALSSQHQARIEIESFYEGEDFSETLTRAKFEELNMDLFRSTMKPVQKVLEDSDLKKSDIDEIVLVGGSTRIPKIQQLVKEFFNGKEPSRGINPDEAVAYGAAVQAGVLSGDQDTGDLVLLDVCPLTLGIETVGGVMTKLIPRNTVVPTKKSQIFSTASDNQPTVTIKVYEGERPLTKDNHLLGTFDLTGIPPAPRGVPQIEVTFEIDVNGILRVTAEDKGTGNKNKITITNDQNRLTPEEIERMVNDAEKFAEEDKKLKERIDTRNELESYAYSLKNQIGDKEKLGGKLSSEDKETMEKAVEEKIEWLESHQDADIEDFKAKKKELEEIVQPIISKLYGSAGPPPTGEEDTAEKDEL
substance,measurement,value
"PEP42: 13-mer cyclic peptide, amino acid sequence CTVALPGGYVRKC (SEQ ID NO:1) (also: cyclic)",binding with GRP78,shown to bind with GRP78
